Source: patent US10428127B2, “Cyclic, amyloid beta-binding peptides and the use thereof” (FORSCHUNGSZENTRUM JUELICH GMBH, priority 2013, dated 2019)
“Also recorded” adds a separate entry of the source. Non-standard residues stand in square brackets, D forms with d. No end group written: not given here.

Tests used:
amyloid beta fibrils = molecular target: T1, amyloid beta fibrils (Homo sapiens, UniProt P05067); test: SPR binding kinetics, single-cycle, heterogeneous binding model (FIG. 4); settings: 25° C., high-affinity site
T1 construct: 1 mg lyophilized Aß1-42 and N-terminal biotinylated Aß1-42; biotin (only on part of the peptide molecules)
T1 sequence (P05067 672-713): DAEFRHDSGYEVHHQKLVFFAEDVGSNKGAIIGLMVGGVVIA
Experimental: (§1) 1 mg lyophilized Aß1-42 and N-terminal biotinylated Aß1-42 were each dissolved in 1 ml 100% hexafluoroisopropanol (HFIP) and dissolved overnight at room temperature. For the oligomer and fibril preparation, non-biotinylated Aß was used with N-terminal biotinylated Aß at a ratio of 1:10 and the HFIP was evaporated (Concentrator 5301 from Eppendorf). The resultant Aß film, at a final concentration of 80 μM, was placed in sodium phosphate buffer (10 mM, pH 7.4) and incubated (RT, 600 rpm). The incubation time was 3 h for the oligomer preparation, and 24 h for the fibril preparation. 100% N-terminal biotinylated Aß1-42 without incubation was used for the preparation of monomers.
(§2) The density gradient centrifugation was carried out subsequent to the Aß preparation to purify the respective Aß species according to the size of the same. An iodixanol gradient in 10 mM sodium phosphate buffer, pH 7.4 with rising concentrations from 50% to 5% v/v iodixanol was used for this purpose. 100 μl of the Aß sample was applied and separated by way of ultracentrifugation (3 h, 4° C., 259000 g). […]
(§3) Binding kinetics were likewise measured by way of SPR spectroscopy using a T200 device from Biacore (GE Healthcare). […] The binding curves were evaluated by way of kinetic fit models (heterogeneous binding model) using the Biacore T200 evaluation software (version 2.0). […]

amyloid beta oligomers = molecular target: T2, amyloid beta oligomers (Homo sapiens, UniProt P05067); test: SPR binding kinetics, single-cycle, heterogeneous binding model (FIG. 3)
T2 construct: 1 mg lyophilized Aß1-42 and N-terminal biotinylated Aß1-42; biotin (only on part of the peptide molecules)
T2 sequence (P05067 672-713): as above
Experimental: as §1
The density gradient centrifugation was carried out subsequent to the Aß preparation to purify the respective Aß species according to the size of the same. An iodixanol gradient in 10 mM sodium phosphate buffer, pH 7.4 with rising concentrations from 50% to 5% v/v iodixanol was used for this purpose. 100 μl of the Aß sample was applied and separated by way of ultracentrifugation (3 h, 4° C., 259000 g). Subsequently, the gradient was fractionated into 14 fractions, 140 μl each. Monomeric Aß are present in the first two top fractions, Aß oligomers in fractions 4 to 6, and Aß fibrils in fractions 11 to 13.
A T200 from Biacore (GE Healthcare) was used for SPR spectroscopy. The Aß species purified by way of density gradient centrifugation were directly immobilized on a sensor chip (Series S Sensor Chips SA) according to the manufacturer's instructions by way of biotin-streptavidin coupling. 1×PBS was used as the running buffer. Loading took place at 25° C. and a flow rate of 5 μl/min. Subsequently, the flow cells were freed from non-specifically bound ligand overnight at a steady flow of 30 μl/min.
Binding kinetics were likewise measured by way of SPR spectroscopy using a T200 device from Biacore (GE Healthcare). The standard conditions are 25° C. and a flow rate of 30 μl/min. Different lyophilizates of the D peptides were placed in the 1×PBS running buffer and serially diluted. The method used was a “single-cycle” kinetics method, wherein five increasing analyte concentrations were pumped over the immobilized flow cells. The contact times selected, depending on the analyte, were 90 to 120 s for association and dissociation and 1800 to 5400 s for the final dissociation. The sensorgrams were double referenced with the aid of an unloaded flow cell and the running buffer that was used. The binding curves were evaluated by way of kinetic fit models (heterogeneous binding model) using the Biacore T200 evaluation software (version 2.0).
FIGS. 2 to 4 show the results on the binding behavior of the cyclized peptides according to the invention (affinity study). The figures show data for the kinetic evaluation of the binding strength of the various candidates to amyloid beta monomers (FIG. 2), amyloid beta oligomers (FIG. 3), and amyloid beta fibrils (FIG. 4). The two binding constants that result when fitting a heterogeneous binding model are shown in each case, plotted as white bars and black bars. It is important to remember that a logarithmic scale is shown here, which means that minor differences in the bar size represent major differences in the dissociation constant KD. White bars are the respective low-affinity sites and the binding strengths thereof, and black bars show the high-affinity binding sites and the binding strengths thereof. […]

transgenic AD mice = settings: oral administration with drinking water; cited from earlier work
A beta monomer = molecular target: T3, A beta monomer (Homo sapiens, UniProt P05067); test: Density gradient centrifugation fractions treated with peptide, A beta size distribution (FIG. 1); type: biochemical; settings: fractions 1 to 2 of density gradient
T3 construct: approximately 20 nM or 1.8 ng Aß 1-42
T3 sequence (P05067 672-713): as above
Experimental: (§4) Thereafter, the resultant fractions are treated with and without an active ingredient and determined by way of RP-HPLC, for example. In this way, it is possible to determine the effectiveness of the active ingredient.
(§5) A further method is described hereafter. The so-called QIAD (quantitative determination of interference with Aß aggregate size distribution) test can be used for the quantitative analysis of active ingredients. The method for quantitatively analyzing the influence of an active ingredient on the particle size distribution of amyloid peptides and/or proteins in a sample comprises the following steps. […] This change is established quantitatively. […] Finally, the concentration of A beta in the respective fraction is determined by completely denaturing the A beta species during a reverse phase (RP-)HPLC carried out subsequent to the fractionating. […] Eluting A beta is detected by way of UV absorption at 215 nm. […] Depending on the fraction, the mean value from multiple, for example six, experiments conducted independently of one another can be calculated with the resulting standard deviation. The advantage of HPLC analysis is that detection is very sensitive (such as approximately 20 nM or 1.8 ng Aß 1-42) and quantification is reliable independently of the state of aggregation and the solvent. […]

A beta oligomers = molecular target: T4, A beta oligomers (Homo sapiens, UniProt P05067); test: as above; type: biochemical; settings: fractions 4 to 8 (or 4 to 10) of density gradient; peptide 20 μM; versus control and linear D3
T4 construct: approximately 20 nM or 1.8 ng Aß 1-42
T4 sequence (P05067 672-713): as above
Experimental: as §4, §5

amyloid beta monomers = molecular target: T5, amyloid beta monomers (Homo sapiens, UniProt P05067); test: SPR binding kinetics, single-cycle, heterogeneous binding model (FIG. 2); settings: 25° C., high-affinity site
T5 construct: 100% N-terminal biotinylated Aß1-42 without incubation
T5 sequence (P05067 672-713): as above
Experimental: as §1, §2, §3

APPsDI mice = test: Morris water maze (MWW) test, spatial memory (FIG. 5); type: in vivo; settings: five consecutive days, compared to saline
Experimental: The test measures the spatial memory of animals, which here were genetically engineered APPsDI mice.
The time is measured in seconds that an animal requires to locate a platform hidden closely beneath the water surface in a water tank. This is measured in several experiments per day on several consecutive days. […] The search time is plotted in seconds on five consecutive days for mice that were treated with the peptide according to the invention cD3R (SEQ ID NO. 5), compared to placebo experiments (saline).

## rkrtrlhthrnr (cyclo([dR][dK][dR][dT][dR][dL][dH][dT][dH][dR][dN][dR])) [cD3P2K]
Amyloid beta fibrils
  KD (kinetics), binding strength to amyloid beta fibrils: sub-pM binding range

## rprtrlhthrnr ([dR][dP][dR][dT][dR][dL][dH][dT][dH][dR][dN][dR]) [D3, D-enantiomeric linear peptide known from WO 02/081505 A2]
Amyloid beta oligomers; fit of SPR binding data
  binding sites bound on amyloid beta oligomer: binds only a low-affinity site, but not a high-affinity site
Transgenic AD mice
  cognitive abilities of treated mice: significantly improved cognitive abilities
  plaque in treated mice: considerably less plaque

## rprtrlhthrnr (cyclo([dR][dP][dR][dT][dR][dL][dH][dT][dH][dR][dN][dR]); SMILES CC(C)C[C@H]1NC(=O)[C@@H](CCCNC(=N)N)NC(=O)[C@@H]([C@H](C)O)NC(=O)[C@@H](CCCNC(=N)N)NC(=O)[C@H]2CCCN2C(=O)[C@@H](CCCNC(=N)N)NC(=O)[C@@H](CCCNC(=N)N)NC(=O)[C@@H](CC(N)=O)NC(=O)[C@@H](CCCNC(=N)N)NC(=O)[C@@H](Cc2c[nH]cn2)NC(=O)[C@@H]([C@H](C)O)NC(=O)[C@@H](Cc2c[nH]cn2)NC1=O) [cD3, cyclized D3, N-terminal amino group and C-terminal carboxyl group coupled by an amide bond]
A beta monomer
  influence on the A beta monomer concentration: no influence
A beta oligomers
  elimination / decrease of A beta oligomer concentration: eliminates the oligomers in fractions 4 to 8 even more efficiently than linear D3; also recorded: clear decrease in the A beta oligomer concentration
Amyloid beta oligomers; from Rmax 79/21%
  number of low-affinity sites relative to high-affinity sites: approximately 4 times
Amyloid beta oligomers; high-affinity site (KD2)
  Rmax, contribution of high-affinity site (KD2) to RU total loading: 21%
Amyloid beta oligomers; low-affinity site (white bar)
  Rmax, contribution of low-affinity site to RU total loading: 79%

## rprtrlhthrnrr (cyclo([dR][dP][dR][dT][dR][dL][dH][dT][dH][dR][dN][dR][dR])) [cD3r]
Amyloid beta monomers
  KD (kinetics), binding affinity to amyloid beta monomers: particularly high affinity
Amyloid beta oligomers; SPR, 25° C., high-affinity site, compared with other cyclized peptides
  KD (kinetics), binding strength to amyloid beta oligomers: binds even more strongly by two orders of magnitude than the other cyclized peptides
Amyloid beta fibrils
  KD (kinetics), binding strength to amyloid beta fibrils: does very well
APPsDI mice
  learning (search time to locate hidden platform): significant
